Reference: patent US20210238276A1 (INTEGRAL MOLECULAR, published 2021)

T1: hsGLUT4 E507A (human, UniProt P14672 1-509)
T1 sequence: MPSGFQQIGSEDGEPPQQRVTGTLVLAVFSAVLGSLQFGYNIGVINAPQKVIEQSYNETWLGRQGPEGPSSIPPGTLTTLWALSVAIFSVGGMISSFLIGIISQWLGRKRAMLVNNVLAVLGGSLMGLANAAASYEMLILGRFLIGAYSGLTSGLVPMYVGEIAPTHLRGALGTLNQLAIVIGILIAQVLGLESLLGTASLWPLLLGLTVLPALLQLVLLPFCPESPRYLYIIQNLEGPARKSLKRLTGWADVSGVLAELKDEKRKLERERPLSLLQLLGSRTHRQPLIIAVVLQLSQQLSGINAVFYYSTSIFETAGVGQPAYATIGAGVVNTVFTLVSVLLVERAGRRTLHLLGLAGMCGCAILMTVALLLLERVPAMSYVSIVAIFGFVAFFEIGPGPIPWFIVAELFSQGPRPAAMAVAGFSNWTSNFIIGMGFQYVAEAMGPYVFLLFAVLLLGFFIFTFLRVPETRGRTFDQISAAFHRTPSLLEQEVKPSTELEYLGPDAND

T2: hsGLUT4 F405A (human, UniProt P14672 1-509)
T2 sequence: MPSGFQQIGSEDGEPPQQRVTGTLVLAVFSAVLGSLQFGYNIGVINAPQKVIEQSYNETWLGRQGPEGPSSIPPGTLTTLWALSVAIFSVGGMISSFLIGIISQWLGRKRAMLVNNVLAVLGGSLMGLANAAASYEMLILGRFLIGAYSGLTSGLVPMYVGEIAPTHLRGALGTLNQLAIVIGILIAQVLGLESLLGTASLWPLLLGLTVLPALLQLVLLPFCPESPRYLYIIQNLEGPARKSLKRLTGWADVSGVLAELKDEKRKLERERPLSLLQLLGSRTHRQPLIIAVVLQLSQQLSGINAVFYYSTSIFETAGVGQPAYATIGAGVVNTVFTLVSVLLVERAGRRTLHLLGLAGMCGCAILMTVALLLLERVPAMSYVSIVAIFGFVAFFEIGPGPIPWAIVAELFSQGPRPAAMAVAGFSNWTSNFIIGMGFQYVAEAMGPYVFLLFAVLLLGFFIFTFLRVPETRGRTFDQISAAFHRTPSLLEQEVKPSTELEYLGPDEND

T3: hsGLUT4 E162A (human, UniProt P14672 1-509)
T3 sequence: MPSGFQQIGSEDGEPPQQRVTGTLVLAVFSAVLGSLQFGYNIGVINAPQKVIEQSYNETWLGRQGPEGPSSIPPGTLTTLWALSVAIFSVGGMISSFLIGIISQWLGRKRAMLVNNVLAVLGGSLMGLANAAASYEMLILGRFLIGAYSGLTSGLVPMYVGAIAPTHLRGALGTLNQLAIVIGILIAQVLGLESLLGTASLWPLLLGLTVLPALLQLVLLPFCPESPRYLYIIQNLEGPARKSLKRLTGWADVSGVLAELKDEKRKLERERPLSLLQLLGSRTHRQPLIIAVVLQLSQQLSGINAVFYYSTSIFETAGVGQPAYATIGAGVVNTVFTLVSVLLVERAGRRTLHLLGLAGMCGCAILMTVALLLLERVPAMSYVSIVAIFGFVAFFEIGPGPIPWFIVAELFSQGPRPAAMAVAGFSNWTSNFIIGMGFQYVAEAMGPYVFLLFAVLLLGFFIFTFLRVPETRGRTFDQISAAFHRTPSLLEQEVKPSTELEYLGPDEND

T4: hsGLUT4 G356A (human, UniProt P14672 1-509)
T4 sequence: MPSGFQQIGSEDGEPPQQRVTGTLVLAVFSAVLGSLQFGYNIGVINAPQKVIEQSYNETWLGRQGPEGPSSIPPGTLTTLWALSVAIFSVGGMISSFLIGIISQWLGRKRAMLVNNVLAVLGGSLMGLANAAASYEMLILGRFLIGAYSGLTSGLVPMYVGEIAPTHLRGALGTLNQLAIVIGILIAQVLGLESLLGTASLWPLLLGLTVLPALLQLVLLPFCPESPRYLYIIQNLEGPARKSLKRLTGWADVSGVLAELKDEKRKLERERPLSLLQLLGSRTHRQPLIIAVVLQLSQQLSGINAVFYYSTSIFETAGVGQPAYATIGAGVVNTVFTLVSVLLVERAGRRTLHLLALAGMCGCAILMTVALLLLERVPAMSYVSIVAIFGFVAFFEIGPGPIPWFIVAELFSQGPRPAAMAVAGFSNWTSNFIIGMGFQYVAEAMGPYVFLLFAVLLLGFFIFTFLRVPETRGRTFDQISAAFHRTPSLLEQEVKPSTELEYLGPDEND


What was measured:
Assay in all cases: flow cytometry, alanine-scan library in HEK-293T
hsGLUT4 E507A = molecular target: T1, hsGLUT4 E507A
Method in brief: (§1)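 HEK-293T cells expressing individual GLUT4 alanine mutants were stained 48 h post-transfection with anti-GLUT4 scFv MAbs (2 μg/ml), then biotinylated secondary and streptavidin-PerCP, and read by high-throughput flow cytometry. Where used, cytochalasin B (10 uM final) was given for 30 min before and during primary antibody staining.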

hsGLUT4 F405A = molecular target: T2, hsGLUT4 F405A
Method in brief: as §1

hsGLUT4 E162A = molecular target: T3, hsGLUT4 E162A
Method in brief: as §1

hsGLUT4 G356A = molecular target: T4, hsGLUT4 G356A
Method in brief: as §1

Row | Molecule | % of binding to wild type GLUT4 (hsGLUT4 E507A) | % of binding to wild type GLUT4 (hsGLUT4 F405A) | % of binding to wild type GLUT4 (hsGLUT4 E162A) | % of binding to wild type GLUT4 (hsGLUT4 G356A)
1 | 1F8 (antibody) | 127% | 107% | 87% | 90%
2 | AB101 (scFv, Chicken-derived clone used as a control; the four lead clones were tested as scFv-human IgG1 Fc; also called MAb AB101) scFv: ALTQPSSVSANPGETVKITCSGSSNSYGWYQQKSPGSAPVTVIYYNDKRPSDIPSRFSGSKSDSTHTLTITGVRAEDEAVYFCGSYDSTYVGIFGAGTTLTVLGQSSRSSGGGGSSGGGGSAVTLDESGGGLQTPGGTLSLVCKASGFTFSSNAMGWVRQAPGKGLEWVAGISSDGRYTKYGSAVKGRATISRDNGQSTVRLQLNNLRAEDTGTYFCAKAFGNNYRRIYAGQIDAWGHGTEVIVSS | 5% | 106% | 83% | 46%
3 | AB111 (Fc fusion, Bivalent scFv-Fc; also called MAb AB111; not shown: Fc fragment of human IgG1, cloned in frame with the scFv) scFv: ALTQPSSVSANPGETVKITCSGSGSWYGWFQQKSPGSAPVTVIYSNDKRPSDIPSRFSGSKSGSTSTLTITGVQVEDEAVYYCGNWDIFGAGTTLTVLGQSSRSSGGGGSSGGGGSAVTLDESGGGLQTPGGALSLVCKASGFTFSSHGMGWVRQAPGKGLEWVASISTGRYTFYAPAVKGRATISRDNGQSTVRLQLNNLRAEDTATYYCTKCAGLNGCGGGEIDAWGHGTEVIVSS | 119% | 118% | 72% | 137%
4 | AB108 (Fc fusion, Bivalent scFv-Fc; also called MAb AB108; not shown: Fc fragment of human IgG1, cloned in frame with the scFv) scFv: ALTQPSSVSANLGGTVKITCSGSSGSYGWYQQKAPGSAPVTLIYRNDKRPSDIPSRFSGSESGSTGTLTITGVQAEDEAVYFCGGYDSSAGYAAFGAGTTLTVLGQSSRSSGGGGSSGGGGSAVTLDESGGGLQTPGGALSLVCKASGFTFSSHGMGWVRQAPGKGLEWVGSISTGRYTFYAPAVKGRATISRDNGQSTLRLQLNNLRAEDTGTYYCTKCAGLNGCGGGEIDAWGHGTEVIVSS | 53% | 103% | 41% | 19%
